# Assay results taken from the supplement of paper PMC12067230.
# ± gives the uncertainty stated by the source.
# B1: E-1-H; numbered along this chain (parent)
# chain: EASNCFAIRHFENKFAVETLICFNLFLNSQEKHY
# Variants of: B1
# Test: amyloid nucleation score relative to WT ADan (yeast Sup35 reporter selection) (log enrichment difference); higher = more amyloid nucleation
# Experimental: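 Deep mutational scan of the ADan peptide fused to the Sup35 nucleation domain (SupN) in S. cerevisiae [psi-pin-], covering all single amino-acid substitutions and stop truncations (truncations = sequence up to the stop). After 24 h Cu2+ induction, cells were selected on -ADE-URA plates for 7 d at 30 °C. The nucleation score is log enrichment (output/input, deep sequencing) minus that of WT ADan, as the error-weighted mean of 3 biological replicates (DiMSum).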
row,Variant,amyloid nucleation score
1,HASNCFAIRHFENKFAVETLICFNLFLNSQEKHY [E1H],-0.752 ± 0.34
2,TASNCFAIRHFENKFAVETLICFNLFLNSQEKHY [E1T],-1.09 ± 0.24
3,FASNCFAIRHFENKFAVETLICFNLFLNSQEKHY [E1F],-1.27 ± 0.26
4,KASNCFAIRHFENKFAVETLICFNLFLNSQEKHY [E1K],-1.2 ± 0.24
5,WASNCFAIRHFENKFAVETLICFNLFLNSQEKHY [E1W],0.00448 ± 0.2
6,YASNCFAIRHFENKFAVETLICFNLFLNSQEKHY [E1Y],0.135 ± 0.22
7,SASNCFAIRHFENKFAVETLICFNLFLNSQEKHY [E1S],-0.005 ± 0.23
8,GASNCFAIRHFENKFAVETLICFNLFLNSQEKHY [E1G],0.0173 ± 0.14
9,AASNCFAIRHFENKFAVETLICFNLFLNSQEKHY [E1A],0.401 ± 0.18
10,QASNCFAIRHFENKFAVETLICFNLFLNSQEKHY [E1Q],-0.0134 ± 0.25
11,IASNCFAIRHFENKFAVETLICFNLFLNSQEKHY [E1I],-1.07 ± 0.3
12,NASNCFAIRHFENKFAVETLICFNLFLNSQEKHY [E1N],0.0879 ± 0.31
13,DASNCFAIRHFENKFAVETLICFNLFLNSQEKHY [E1D],-0.0528 ± 0.21
14,RASNCFAIRHFENKFAVETLICFNLFLNSQEKHY [E1R],-1.76 ± 0.21
15,VASNCFAIRHFENKFAVETLICFNLFLNSQEKHY [E1V],0.419 ± 0.15
16,MASNCFAIRHFENKFAVETLICFNLFLNSQEKHY [E1M],-0.555 ± 0.27
17,LASNCFAIRHFENKFAVETLICFNLFLNSQEKHY [E1L],-1.03 ± 0.17
18,CASNCFAIRHFENKFAVETLICFNLFLNSQEKHY [E1C],0.179 ± 0.21
19,PASNCFAIRHFENKFAVETLICFNLFLNSQEKHY [E1P],0.117 ± 0.38
20,EASNCIAIRHFENKFAVETLICFNLFLNSQEKHY [F6I],-0.609 ± 0.19
21,EASNCSAIRHFENKFAVETLICFNLFLNSQEKHY [F6S],0.477 ± 0.11
22,EASNCPAIRHFENKFAVETLICFNLFLNSQEKHY [F6P],0.53 ± 0.16
23,EASNCGAIRHFENKFAVETLICFNLFLNSQEKHY [F6G],0.176 ± 0.11
24,EASNCLAIRHFENKFAVETLICFNLFLNSQEKHY [F6L],-0.5 ± 0.11

row,Variant,amyloid nucleation score
1,EASNCDAIRHFENKFAVETLICFNLFLNSQEKHY [F6D],0.634 ± 0.16
2,EASNCNAIRHFENKFAVETLICFNLFLNSQEKHY [F6N],0.646 ± 0.28
3,EASNCHAIRHFENKFAVETLICFNLFLNSQEKHY [F6H],0.563 ± 0.19
4,EASNCAAIRHFENKFAVETLICFNLFLNSQEKHY [F6A],0.0803 ± 0.13
5,EASNCQAIRHFENKFAVETLICFNLFLNSQEKHY [F6Q],0.362 ± 0.17
6,EASNCRAIRHFENKFAVETLICFNLFLNSQEKHY [F6R],0.678 ± 0.1
7,EASNCVAIRHFENKFAVETLICFNLFLNSQEKHY [F6V],-0.127 ± 0.1
8,EASNCMAIRHFENKFAVETLICFNLFLNSQEKHY [F6M],-0.0809 ± 0.15
9,EASNCEAIRHFENKFAVETLICFNLFLNSQEKHY [F6E],0.683 ± 0.15
10,EASNCYAIRHFENKFAVETLICFNLFLNSQEKHY [F6Y],0.351 ± 0.14
11,EASNCCAIRHFENKFAVETLICFNLFLNSQEKHY [F6C],0.408 ± 0.14
12,EASNCWAIRHFENKFAVETLICFNLFLNSQEKHY [F6W],0.168 ± 0.16
13,EASNCKAIRHFENKFAVETLICFNLFLNSQEKHY [F6K],0.8 ± 0.17
14,EASFCFAIRHFENKFAVETLICFNLFLNSQEKHY [N4F],-4.13 ± 0.42
15,EASCCFAIRHFENKFAVETLICFNLFLNSQEKHY [N4C],-2.58 ± 0.3
16,EASHCFAIRHFENKFAVETLICFNLFLNSQEKHY [N4H],-0.547 ± 0.26
17,EASWCFAIRHFENKFAVETLICFNLFLNSQEKHY [N4W],-3.34 ± 0.39
18,EASQCFAIRHFENKFAVETLICFNLFLNSQEKHY [N4Q],-0.267 ± 0.22
19,EASTCFAIRHFENKFAVETLICFNLFLNSQEKHY [N4T],-2.19 ± 0.26
20,EASKCFAIRHFENKFAVETLICFNLFLNSQEKHY [N4K],0.0897 ± 0.19
21,EASMCFAIRHFENKFAVETLICFNLFLNSQEKHY [N4M],-4.92 ± 0.93
22,EASYCFAIRHFENKFAVETLICFNLFLNSQEKHY [N4Y],-2.45 ± 0.28
23,EASVCFAIRHFENKFAVETLICFNLFLNSQEKHY [N4V],-4.24 ± 0.49
24,EASGCFAIRHFENKFAVETLICFNLFLNSQEKHY [N4G],-2.24 ± 0.15

row,Variant,amyloid nucleation score
1,EASSCFAIRHFENKFAVETLICFNLFLNSQEKHY [N4S],-0.879 ± 0.12
2,EASECFAIRHFENKFAVETLICFNLFLNSQEKHY [N4E],0.296 ± 0.18
3,EASRCFAIRHFENKFAVETLICFNLFLNSQEKHY [N4R],-0.0776 ± 0.12
4,EASACFAIRHFENKFAVETLICFNLFLNSQEKHY [N4A],-3.1 ± 0.4
5,EASICFAIRHFENKFAVETLICFNLFLNSQEKHY [N4I],-3.04 ± 0.28
6,EASLCFAIRHFENKFAVETLICFNLFLNSQEKHY [N4L],-4.8 ± 0.57
7,EASPCFAIRHFENKFAVETLICFNLFLNSQEKHY [N4P],-0.352 ± 0.18
8,EASDCFAIRHFENKFAVETLICFNLFLNSQEKHY [N4D],0.376 ± 0.17
9,EASNCFAMRHFENKFAVETLICFNLFLNSQEKHY [I8M],0.354 ± 0.15
10,EASNCFADRHFENKFAVETLICFNLFLNSQEKHY [I8D],0.678 ± 0.15
11,EASNCFAHRHFENKFAVETLICFNLFLNSQEKHY [I8H],0.873 ± 0.21
12,EASNCFACRHFENKFAVETLICFNLFLNSQEKHY [I8C],0.524 ± 0.14
13,EASNCFAGRHFENKFAVETLICFNLFLNSQEKHY [I8G],0.834 ± 0.11
14,EASNCFANRHFENKFAVETLICFNLFLNSQEKHY [I8N],0.497 ± 0.15
15,EASNCFAARHFENKFAVETLICFNLFLNSQEKHY [I8A],0.49 ± 0.13
16,EASNCFALRHFENKFAVETLICFNLFLNSQEKHY [I8L],0.288 ± 0.099
17,EASNCFAFRHFENKFAVETLICFNLFLNSQEKHY [I8F],0.15 ± 0.14
18,EASNCFAKRHFENKFAVETLICFNLFLNSQEKHY [I8K],0.701 ± 0.17
19,EASNCFAERHFENKFAVETLICFNLFLNSQEKHY [I8E],0.604 ± 0.17
20,EASNCFSIRHFENKFAVETLICFNLFLNSQEKHY [A7S],0.0708 ± 0.089
21,EASNCFRIRHFENKFAVETLICFNLFLNSQEKHY [A7R],0.12 ± 0.086
22,EASNCFPIRHFENKFAVETLICFNLFLNSQEKHY [A7P],0.577 ± 0.12
23,EASNCFFIRHFENKFAVETLICFNLFLNSQEKHY [A7F],0.173 ± 0.13
